The text below walks through data of US20240140995A1.

Experiment [1] concerns the target T1, GthCol (Geobacillus thermoglucosidasius C-terminal Colicin DNase domain, C36A, H78A, engineered) (Geobacillus thermoglucosidasius). The experiment is described as follows: SPR Biacore T200, 37 C, single cycle kinetics. The following applies: remark: other sources report otherwise. (SPR reads the build-up and loss of mass on a sensor chip optically.)
Experiment [2] addresses T1, GthCol (Geobacillus thermoglucosidasius …). The experiment is described as follows: SPR Biacore T200, 37 C, single cycle kinetics; […]. The following applies: remark: other sources report otherwise.

B1: E. coli IM-7, singly biotinylated, Q03708 1-87 (protein)
chain: MELKNSISDYTEAEFVQLLKEIEKENVAATDDVLDVLLEHFVKITEHPDGTDLIYYPSDNRDDSPEGIVKEIKEWRAANGKPGFKQG
The Kd is the constant that tells how readily two partners part at equilibrium. A high value points to a looser complex. As usually defined, the koff is the rate constant with which the complex falls apart. Low readings indicate a long-lived complex, high ones a short-lived complex. A word on the kon: it is the rate constant with which the complex forms. A lower kon goes with slow association. As for B1, the complex half-life t/2-diss in experiment [1] is 2.1 h. In addition, in experiment [2], the equilibrium dissociation constant (Kd) amounted to 0.074 nM; the MR (Molar Ratio, binding stoichiometry) was 1.1; the koff turned out to be 9.2e-05 s⁻¹; the on-rate (kon) was determined as 1.2e+06 M⁻¹ s⁻¹.
